Data on 1 molecule can be found in publication PMC4119988 (British Journal of Cancer, 2014).

In this assay the target is OTU domain-containing protein 1 (Homo sapiens (Human)., UniProt Q5VV17). The assay can be described thus: far-Western, overlay or dot blot.
Chain of OTU domain-containing protein 1 (Q5VV17 whole entry, the tested form may be a part): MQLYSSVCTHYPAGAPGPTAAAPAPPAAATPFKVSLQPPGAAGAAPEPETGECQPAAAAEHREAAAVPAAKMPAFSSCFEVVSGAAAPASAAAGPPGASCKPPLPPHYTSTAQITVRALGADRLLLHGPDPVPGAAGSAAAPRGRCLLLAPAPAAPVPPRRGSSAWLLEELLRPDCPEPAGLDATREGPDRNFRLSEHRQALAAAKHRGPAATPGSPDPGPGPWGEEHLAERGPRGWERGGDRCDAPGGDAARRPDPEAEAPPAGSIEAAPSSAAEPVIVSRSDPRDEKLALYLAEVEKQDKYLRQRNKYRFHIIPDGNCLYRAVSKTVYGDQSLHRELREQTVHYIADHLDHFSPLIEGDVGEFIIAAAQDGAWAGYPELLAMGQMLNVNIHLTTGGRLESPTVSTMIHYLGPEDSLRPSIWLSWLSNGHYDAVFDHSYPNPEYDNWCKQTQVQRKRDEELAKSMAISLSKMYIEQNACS

B1: scFv-C1 (scFv, V domains shown)
VH: EVQLLESGGGLVQPGGSLGLSCVASGFTFSDRWMSWVRQAPGKGLEWVAKIKQDGSEKLYVDSVKGRFTIPRDNSKNSLYLQMDSLRAEDTAVYYCVRGAGWLLDHWGQGILVTVSS
VL: SYVLTQPPSVSVAPGKTARITCGGNNIGRKSVHWYQQKPGQAPVLVVYDDSDRPSGIPERFSGSNSGNTATLTISRVEAGDEADYYCQVWDSSSDHSNWVFGGGTQLTVL
With B1, the binding result is “binds”.
